# Experimental data from patent US11124785B2, “Rothia subtilisins, S8A family proteases, as therapeutic enzymes for application in gluten intolerance disorders” (TRUSTEES OF BOSTON UNIVERSITY, priority 2016, dated 2021).
# Legend:
# [1] = system: R. mucilaginosa enzyme preparation (Rmep); assay: Inhibitor profile of Rmep (Suc-AAPF-pNA hydrolysis); type: biochemical, Rothia mucilaginosa; conditions: for inhibition of Rmep activity: AEBSF 10 mM, aprotinin 0.08 mM, E-64 0.1 mM, EDTA 1.5 mM, PMSF 1 mM, Rmep 5.7 μg/ml, Suc-AAPF-pNA
# Method: Inhibitors AEBSF, Aprotinin, E-64, EDTA, PMSF and Eglin C were tested at final concentrations of 10 mM, 0.08 mM, 0.1 mM, 1.5 mM, 1 mM, and 0.06 μM, respectively. Rmep was added at a final concentration of 5.7 μg/ml. The percent inhibition was determined from the ratio of the initial velocities of hydrolysis of Suc-AAPF-pNA (SEQ ID NO: 4) in the absence and presence of inhibitor.
# (§1) Hydrolysis of paranitroanilide-derivatized substrates—Paranitroanilide (pNA)-derivatized tripeptide substrates were chemically synthesized at >90% purity (21st Century Biochemicals, Marlborough, Mass.). The substrates obtained were Z-YPQ-pNA, Z-QQP-pNA, Z-LPY-pNA, Z-PFP-pNA, Z-PPF-pNA, where Z=benzyloxycarbonyl, Y=tyrosine, P=proline, Q=glutamine, L=leucine, and F=phenylalanine Suc-AAPF-pNA (SEQ ID NO: 4) was obtained from Sigma, where Suc=N-succinyl and A=alanine. The peptides were dissolved in 75-100% DMSO at 10 mM, and were used at a final concentration of 200 μM in 50 mM TrisHCl pH 8.0. Purified Rothia enzyme or subtilisin A from Bacillus licheniformis (Sigma) were tested at final concentrations of 1 μg/ml. Some experiments were conducted in the presence of inhibitors 4-(2-Aminoethyl) benzenesulfonyl fluoride (AEBSF), Aprotinin, E-64, EDTA, phenylmethanesulfonyl fluoride (PMSF) and Eglin C, which were tested at final concentrations of 10 mM, 0.08 mM, 0.1 mM, 1.5 mM, 1 mM, and 0.06-1.2 μM, respectively. Enzymes were preincubated with the inhibitors for 20 min before adding Suc-AAPF-pNA (SEQ ID NO: 4). Substrate hydrolysis was monitored for 10 h at 405 nm using a Genios microtiter plate reader (Tecan, Männedorf, Switzerland) in the kinetic mode at 37° C.
# [2] = system: Suc-AAPF-pNA; assay: Hydrolysis of paranitroanilide-derivatized substrate Suc-AAPF-pNA; type: biochemical; conditions: substrate 200 μM; enzyme 1 μg/ml (NattoK: dilution series); 50 mM TrisHCl pH 8.0, 37° C.
# Method: FIG. 4A and FIG. 4B are representative graphs of the hydrolysis of the substrates: Suc-AAPF-pNA (SEQ ID NO: 4), Z-YPQ-pNA, and Z-LPY-pNA, each at 200 μM, by Rmep and subtilisin A, respectively, each at 1 μg/ml.
# FIG. 8C show a representative graph of the hydrolysis of the substrate, Suc-AAPF-pNA (SEQ ID NO: 4), with a dilution series of NattoK. Suc-AAPF-pNA (SEQ ID NO: 4) was incubated […]. Hydrolysis was measured at 405 nm.
# as §1
# [3] = system: mixed gliadins; assay: Degradation of mixed gliadins (SDS-PAGE); type: biochemical, wheat; conditions: gliadins 250 μg/ml; NattoK 57 μg/ml 0-120 min and dilution series 3.5-0.06 μg/ml 30 min
# Method: FIG. 5A is a representative SDS-PAGE gel of non-digested gliadins (control) and Rmep-treated gliadins. Gliadins (250 μg/ml) in 50 mM Tris/HCl pH 8.0 were incubated with Rmep at 57 μg/ml. After 0, 15 min, 30 min and 2 h incubation 100 μl aliquots were removed, boiled and analyzed by SDS-PAGE and stained with COOMASSIE Brilliant Blue. The bold arrow (left) points to the position of the major band in the gliadin preparation; the thin arrow (right) to the 125 kDa band in the Rmep preparation, and the dotted arrows (right) to the gliadin degradation fragments.
# FIG. 6A is a representative SDS-PAGE gel of non-digested gliadins (control) and subtilisin A-treated gliadins. Gliadins (250 μg/ml) in 50 mM Tris/HCl pH 8.0 were incubated with subtilisin A at 57 μg/ml. Experiments were conducted as described in the legend of FIG. 5 with subtilisin A instead of Rmep.
# FIG. 8A is a representative SDS-PAGE gel of non-digested gliadins (control) and NattoK-treated gliadins. Mixed gliadins (G, 250 μg/ml) were incubated with NattoK (57 μg/ml) for 0, 15, 30 and 120 min. Left four lanes: controls without enzyme or gliadins, respectively, each at t=0 and 120 min. Arrow points to the major components in the gliadin mixture represented by α and γ-gliadins containing most of the immunogenic epitopes.
# (§2) Degradation of mixed gliadins and the 33-mer peptide—Mixed gliadins were obtained from Sigma. A synthetic highly immunogenic α-gliadin derived 33-mer peptide (26) was synthesized at a purity of >90% (21st Century Biochemicals). Mixed gliadins or the 33-mer peptide (each at final concentration 250 μg/ml) were incubated with Rmep or subtilisin A (each at 57 μg/ml) in 50 mM TrisHCl, pH 8.0. After t=0, 15 min, 30 min, and 2 h, 100 μl sample aliquots were removed and boiled. Gliadin degradation was assessed by 4-12% SDS-PAGE followed by Coomassie staining, and 33-mer degradation was determined by RP-HPLC.
# [4] = system: α-gliadin derived 33-mer peptide; assay: Degradation of the 33-mer peptide (RP-HPLC); type: biochemical; conditions: 33-mer 250 μg/ml, NattoK 57 μg/ml, 0-120 min; large fragment remained
# Method: FIG. 8D is a representative chromatogram of the RP-HPLC analysis of the degradation of the gliadin-derived 33-mer (250 μg/ml) incubated for 0, 15, 30 and 120 min with NattoK 57 μg/ml).
# as §2
# Reversed-phase high performance liquid chromatography (RP-HPLC)—Separation of the 33-mer peptide and its fragments was achieved by RP-HPLC, using buffer A (0.1% trifluoroacetic acid) and buffer B (0.1% trifluoroacetic acid in 80% acetonitrile) at a gradient of 0-55% buffer B over 75 min time interval. The equipment used was an HPLC Model 715 (Gilson, Middleton, Wis.) and a C-18 column (TSK-GEL […], ODS-120T, TOSOHaas, Montgomeryville, Pa.) (22, 25).
# [5] = system: R5 epitopes (QQPFP and related pentapeptides) in mixed gliadins; assay: R5 ELISA, gluten epitope elimination in gliadin digests; type: biochemical; conditions: gliadins 250 μg/ml, NattoK 57 μg/ml, 0-120 min
# Method: FIG. 8E and FIG. 8F show the assessment of the survival of epitopes in the gliadin-NattoK degradation mixture employing the R5 ELISA (FIG. 8E) or G12 ELISA (FIG. 8F) assays. Epitope abolishment in Mixed gliadins (250 μg/ml) were incubated with NattoK (57 μg/ml) for 0, 15, 30 and 120 min and then assayed by the R5 ELISA or G12 ELISA.
# R5 and G12 ELISA assays—Gluten epitope elimination in the gliadin-Rmep and gliadin-subtilisin A digests was assessed using two sandwich ELISA assays employing the R5 monoclonal antibody (RIDASCREEN Gliadin, R-Biopharm, Darmstadt, Germany) or the G12 monoclonal antibody (AgraQuant® ELISA Gluten G12, Romer labs, Union, Mo.). To prevent high background values, the R5 plate wells were blocked with 1% skim milk in PBS prior to incubation with the samples. The assays were performed according to the manufacturers' instructions and as described (21, 24).
# To further investigate this, the time courses of degradation of mixed gliadins and the highly immunogenic 33-mer α-gliadin peptide were determined. Furthermore, epitope elimination was monitored by two ELISA assays employing the R5 antibody recognizing QQPFP (SEQ ID NO: 40) and related pentapeptides (27, 28) and the G12 antibody recognizing QPQLPY (SEQ ID NO: 22) contained in the 33-mer peptide (29, 30). Data obtained with Rmep are shown in FIG. 5, and with subtilisin A in FIG. 6.
# [6] = system: wheat ATI proteins; assay: Degradation of amylase-trypsin inhibitors (SDS-PAGE); type: biochemical; conditions: ATIs 500 μg/ml
# Method: (§3) FIGS. 15A-15F show effective ATI degradation by subtilisins from B. subtilis (nattokinase). […] ATI (500 μg/ml) incubated with Rmep from R. mucilaginosa (FIG. 15A) or nattokinase from B. subtilis (FIG. 15C) at 50, 25, or 10 μg/ml; FIGS. 15B and 15D, Gliadins (500 μg/ml) incubated with Rmep (FIG. 15B) or nattokinase (FIG. 15D) at 25 μg/ml. FIGS. 15E and 15F, ATIs incubated with control heat inactivated enzymes, Rmep (FIG. 15E) or nattokinase (FIG. 15F).
# (§4) ATIs were isolated from wheat cultivars as described^3. They were incubated at a final concentration of 500 μg/ml with 10, 25 or 50 μg/ml Rmep (from R. mucilaginosa), or nattokinase (from B. subtilis). The controls incubations were carried out with heat-inactivated Rmep and nattokinase. Experiments were conducted in 50 mM Tris-HCl, pH 8.0. After 0, 15 min, 30 min, 1 h, and 4 h incubation, 20 μl aliquots were removed, mixed with SDS-sample buffer, heated at 85° C. for 5 min and analyzed by 4-12% SDS PAGE. Proteins were visualized with Coomassie Blue staining.
# [7] = system: gliadins; assay: Gliadin degradation control of Example 3 (SDS-PAGE); type: biochemical; conditions: gliadins 500 μg/ml, enzyme 25 μg/ml, pH 8.0
# Method: as §3, §4
molecule,measurement,setting,value
"NCCc1ccc(S(=O)(=O)F)cc1 [AEBSF, 4-(2-Aminoethyl) benzenesulfonyl fluoride]",inhibition of Rmep activity,[1],inhibited effectively
"O=C(O)CN(CCN(CC(=O)O)CC(=O)O)CC(=O)O [EDTA, ethylenediaminetetraacetic acid]",inhibition of Rmep activity,[1],not
CC(C)C[C@H](NC(=O)[C@H]1O[C@@H]1C(=O)O)C(=O)NCCCCN=C(N)N [E64],inhibition of Rmep activity,[1],not
aprotinin,inhibition of Rmep activity,[1],partial inhibition
"O=S(=O)(F)Cc1ccccc1 [PMSF, phenylmethanesulfonyl fluoride]",inhibition of the Rothia subtilisin by PMSF,"[1]; 1 mM PMSF, stated as embodiment",100%
same,inhibition of Rmep activity,[1],inhibited effectively
"NattoK: nattokinase, a 27.7 kDa subtilisin enzyme from B. subtilis, available in pure form as a dietary supplement (protein, listed as Bacillus subtilis) MRSKKLWISLLFALTLIFTMAFSNMSAQAAGKSSTEKKYIVGFKQTMSAMSSAKKKDVISEKGGKVQKQFKYVNAAAATLDEKAVKELKKDPSVAYVEEDHIAHEYAQSVPYGISQIKAPALHSQGYTGSNVKVAVIDSGIDSSHPDLNVRGGASFVPSETNPYQDGSSHGTHVAGTIAALNNSIGVLGVAPSASLYAVKVLDSTGSGQYSWIINGIEWAISNNMDVINMSLGGPTGSTALKTVVDKAVSSGIVVAAAAGNEGSSGSTSTVGYPAKYPSTIAVGAVNSSNQRASFSSVGSELDVMAPGVSIQSTLPGGTYGAYNGTSMATPHVAGAAALILSKHPTWTNAQVRDRLESTATYLGNSFYYGKGLINVQAAAQ",hydrolysis of Suc-AAPF-pNA,[2],hydrolyzed
same,degradation of mixed gliadins,[3],degraded gliadins effectively
same,degradation of the 33-mer peptide,[4],degraded the 33-mer peptide
same,abolishment of R5 epitopes,[5],abolished
same,ATIs degraded after 4 h incubation with 10 μg/ml enzyme,"[6]; 10 μg/ml enzyme, 4 h",Approximately 50%
same,ATIs degraded after 1 h incubation with 50 μg/ml enzyme,"[6]; 50 μg/ml enzyme, 1 h",Approximately 50%
same,degradation of wheat ATI proteins,"[6]; enzyme 10, 25 or 50 μg/ml, pH 8.0, up to 4 h",susceptible to proteolysis
same,degradation of gliadins,[7],rapidly degraded
